Data taken from patent KR20220059924A (dated 2022).

Experiments:
마우스 Tie2 단백질 = molecular target: T1, 마우스 Tie2 단백질 (mouse, UniProt Q02858 23-1122); assay: flow cytometry, HEK293T cells transfected with mouse Tie2
T1 construct: whole, on cells; also called mouse Tie2

개 Tie2 단백질 = molecular target: T2, 개 Tie2 단백질 (dog, UniProt A0A8I3S0B4 27-1128); assay: flow cytometry, HEK293T cells transfected with dog Tie2
T2 construct: whole, on cells; also called dog Tie2

랫 Tie2 단백질 = molecular target: T3, 랫 Tie2 단백질 (rat, UniProt A0ABK0L6J5 19-1116); assay: flow cytometry, HEK293T cells transfected with rat Tie2
T3 construct: whole, on cells; also called rat Tie2

Measured: binding result

T1 sequence (Q02858 23-1122): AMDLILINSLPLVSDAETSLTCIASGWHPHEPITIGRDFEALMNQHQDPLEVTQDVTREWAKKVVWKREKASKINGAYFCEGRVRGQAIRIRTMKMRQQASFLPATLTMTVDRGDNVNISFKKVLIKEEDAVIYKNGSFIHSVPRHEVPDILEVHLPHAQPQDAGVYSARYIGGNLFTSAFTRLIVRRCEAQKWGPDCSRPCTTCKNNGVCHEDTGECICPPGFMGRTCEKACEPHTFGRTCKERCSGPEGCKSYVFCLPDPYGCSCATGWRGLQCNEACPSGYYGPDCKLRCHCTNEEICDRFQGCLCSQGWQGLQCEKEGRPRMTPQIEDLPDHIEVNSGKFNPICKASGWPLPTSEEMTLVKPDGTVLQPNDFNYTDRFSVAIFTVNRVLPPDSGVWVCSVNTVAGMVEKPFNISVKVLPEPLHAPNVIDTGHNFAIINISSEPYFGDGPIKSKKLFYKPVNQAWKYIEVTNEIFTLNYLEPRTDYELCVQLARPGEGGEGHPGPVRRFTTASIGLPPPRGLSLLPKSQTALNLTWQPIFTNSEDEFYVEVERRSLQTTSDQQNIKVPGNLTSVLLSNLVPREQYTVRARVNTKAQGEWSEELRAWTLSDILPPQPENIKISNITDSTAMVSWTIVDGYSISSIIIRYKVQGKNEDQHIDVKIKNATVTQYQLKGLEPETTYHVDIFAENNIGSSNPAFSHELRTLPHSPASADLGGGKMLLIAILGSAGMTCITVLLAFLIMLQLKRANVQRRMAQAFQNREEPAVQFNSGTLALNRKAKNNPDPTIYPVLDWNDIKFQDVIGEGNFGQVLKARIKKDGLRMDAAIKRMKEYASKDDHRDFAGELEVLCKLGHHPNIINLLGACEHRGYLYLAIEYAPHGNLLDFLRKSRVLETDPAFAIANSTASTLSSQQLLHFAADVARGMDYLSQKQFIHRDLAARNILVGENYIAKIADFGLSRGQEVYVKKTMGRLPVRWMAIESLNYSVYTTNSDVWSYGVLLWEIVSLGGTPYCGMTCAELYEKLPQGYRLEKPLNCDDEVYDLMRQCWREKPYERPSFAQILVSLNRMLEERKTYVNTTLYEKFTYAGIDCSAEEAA

B1: Ang1mab2-1 (antibody, human IgG1, kappa, V domains shown)
VH: QVQLVESGGGVVQPGRSLRLSCAASGFTFSSYAMHWVRQAPGKGLEWVAVISYDGSNKYYADSVKGRFTISRDNSKNTLYLQMNSLRAEDTAVYYCARQYSGVFEYWGQGTLITVSS
VL: DIQMTQSPDSLAVSLGERATINCKSSQSVLYRSNNRNYLAWYQQKLGQPPQLLIYWASTRESGVPDRFSGSGSGADFTLTISSLQAEDVAVYYCQQYFSIPYTFGQGTKLEIKR
notes: also called 제2 기본 항체
no binding (tested: 5ug/ml): 마우스 Tie2 단백질 | 개 Tie2 단백질 | 랫 Tie2 단백질
